These results are taken from paper PMC4267727.

The target in this experiment is E2 wild-type (E2wt) scaffold protein without an HIV-1 N-terminal fusion (Geobacillus stearothermophilus). Briefly: SEC; Superdex200 gel filtration of E2wt in Solubility Buffer 2.2 (1x PBS, 50 mM L-Glutamine, 50 mM NaCl, 250 mM L-Arginine), 1 ml/min. A general note: SEC sorts molecules by how far they enter the pores of the column.

Broadly, the stoichiometry N is the number of molecules, sites or subunits per partner or assembly.

In the case of “E2 wild-type (E2wt) scaffold protein without an HIV-1 N-terminal fusion (domain or fragment)”, the stoichiometry N is 60.
